Positions count from the first letter of the chain named. Names may count otherwise.

For orientation: Kd means the concentration at which binding is half-saturated. A word on the koff: it is a measure of how fast the partners let go of each other. What is called kon is the rate constant with which the complex forms.

For the assay, the target named is T1, recombinant Factor VIII (CSL627, rVIII-SingleChain) (Homo sapiens (Human), UniProt P00451 20-2351).
T1 construct: also called FVIII
T1 sequence: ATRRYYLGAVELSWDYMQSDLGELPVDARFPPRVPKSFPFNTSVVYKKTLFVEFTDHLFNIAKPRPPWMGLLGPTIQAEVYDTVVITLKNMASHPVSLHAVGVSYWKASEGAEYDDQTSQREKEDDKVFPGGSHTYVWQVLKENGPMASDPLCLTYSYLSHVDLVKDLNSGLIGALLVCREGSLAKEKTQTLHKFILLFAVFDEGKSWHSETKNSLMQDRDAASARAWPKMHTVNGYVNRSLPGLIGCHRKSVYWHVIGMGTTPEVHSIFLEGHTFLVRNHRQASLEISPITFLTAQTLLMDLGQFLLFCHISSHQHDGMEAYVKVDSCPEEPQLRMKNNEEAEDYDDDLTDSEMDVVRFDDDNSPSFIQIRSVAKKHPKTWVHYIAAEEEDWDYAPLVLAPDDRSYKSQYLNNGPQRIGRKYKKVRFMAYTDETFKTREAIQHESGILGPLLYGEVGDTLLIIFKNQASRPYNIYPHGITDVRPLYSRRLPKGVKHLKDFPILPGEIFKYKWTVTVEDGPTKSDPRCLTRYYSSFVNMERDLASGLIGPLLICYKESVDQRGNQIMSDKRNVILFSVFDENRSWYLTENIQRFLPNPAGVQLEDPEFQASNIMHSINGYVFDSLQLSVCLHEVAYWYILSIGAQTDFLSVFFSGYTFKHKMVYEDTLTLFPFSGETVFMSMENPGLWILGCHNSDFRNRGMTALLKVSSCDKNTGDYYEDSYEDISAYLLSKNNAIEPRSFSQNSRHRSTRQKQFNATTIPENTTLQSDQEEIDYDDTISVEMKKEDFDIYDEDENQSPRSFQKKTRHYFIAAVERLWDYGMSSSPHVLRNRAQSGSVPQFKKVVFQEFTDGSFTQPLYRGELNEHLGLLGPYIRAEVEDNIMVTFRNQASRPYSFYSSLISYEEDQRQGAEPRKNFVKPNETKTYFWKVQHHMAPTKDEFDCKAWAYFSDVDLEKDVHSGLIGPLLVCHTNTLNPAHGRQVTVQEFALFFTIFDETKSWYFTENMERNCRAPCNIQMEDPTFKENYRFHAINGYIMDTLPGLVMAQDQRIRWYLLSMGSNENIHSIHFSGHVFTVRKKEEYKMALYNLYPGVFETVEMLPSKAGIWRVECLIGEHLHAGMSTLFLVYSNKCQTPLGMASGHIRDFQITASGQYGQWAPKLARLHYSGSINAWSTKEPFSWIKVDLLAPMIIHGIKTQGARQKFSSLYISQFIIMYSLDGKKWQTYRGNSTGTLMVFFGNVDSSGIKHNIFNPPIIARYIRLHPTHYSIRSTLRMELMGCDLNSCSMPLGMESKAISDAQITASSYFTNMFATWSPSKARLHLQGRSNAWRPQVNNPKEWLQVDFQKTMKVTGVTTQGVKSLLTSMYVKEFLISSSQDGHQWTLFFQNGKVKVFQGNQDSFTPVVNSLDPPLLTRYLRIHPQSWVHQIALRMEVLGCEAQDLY
Briefly: SPR, anti-His capture. How it is done:
Binding kinetics were investigated by surface plasmon resonance using a Biacore 4000 biosensor at 37° C. Each mutant was captured from cell culture medium to a density of 40-150 RU on a CM-5 sensor chip pre-immobilised with anti-His antibody (14,000 RU). In an initial screening study, FVIII was injected over the captured mutants for 5 minutes at 1 nM and dissociation monitored for 5 minutes.
All sensorgrams were double referenced by subtraction of signals from a reference spot (containing only immobilised anti His antibody) and from a blank injection. Binding kinetics were determined by fitting the double referenced sensorgrams to a 1:1 kinetic model.
(In SPR one partner is held on a chip, and binding of the other changes the refractive index at the surface.)

B1: Hu-vWF[764-1270]-8His S764P-S766H (other)
chain: PLHCRPPMVKLVCPADNLRAEGLECTKTCQNYDLECMSMGCVSGCLCPPGMVRHENRCVALERCPCFHQGKEYAPGETVKIGCNTCVCRDRKWNCTDHVCDATCSTIGMAHYLTFDGLKYLFPGECQYVLVQDYCGSNPGTFRILVGNKGCSHPSVKCKKRVTILVEGGEIELFDGEVNVKRPMKDETHFEVVESGRYIILLLGKALSVVWDRHLSISVVLKQTYQEKVCGLCGNFDGIQNNDLTSSNLQVEEDPVDFGNSWKVSSQCADTRKVPLDSSPATCHNNIMKQTMVDSSCRILTSDVFQDCNKLVDPEPYLDVCIYDTCSCESIGDCACFCDTIAAYAHVCAQHGKVVTWRTATLCPQSCEERNLRENGYECEWRYNSCAPACQVTCQHPEPLACPVQCVEGCHAHCPPGKILDELLQTCVDPEDCPVCEVAGRRFASGKKVTLNPSDPEHCQICHCDVVNLTCEACQEPGGLVVPPTDAPVSPTTLYVEDISEPPLHDFHHHHHHHH
B1: the Kd worked out at 0.00676 nM, the koff came out at 9.47e-05 s⁻¹ and the kon came to 1.4e+07 M⁻¹ s⁻¹.

B2: Hu-vWF[764-1270]-8His S766Y-K773T (other)
chain: B1 chain with P1S, H3Y, K10T
As for B2, the Kd worked out at 0.0224 nM, the off-rate constant (koff) was found to be 0.000269 s⁻¹ and the kon was 1.2e+07 M⁻¹ s⁻¹.

B3: Hu-vWF[764-1270]-8His S766Y-K773R (other)
chain: B1 chain with P1S, H3Y, K10R
On to B3, for which the dissociation constant Kd is 0.0335 nM, the koff stood at 0.000469 s⁻¹ and the kon came out at 1.4e+07 M⁻¹ s⁻¹.

B4: Hu-vWF[764-1270]-8His S766Y-K773P (other)
chain: B1 chain with P1S, H3Y, K10P
As to B4, the Kd was 0.112 nM, the koff came out at 0.00243 s⁻¹ and the kon was 2.16e+07 M⁻¹ s⁻¹.

B5: Hu-vWF[764-1270]-8His S764P-S766T (other)
chain: B1 chain with H3T
For B5, the Kd was found to be 0.0116 nM, the koff was determined as 0.000105 s⁻¹ and the kon is 9.01e+06 M⁻¹ s⁻¹.

B6: Hu-vWF[764-1270]-8His S764P-S766L (other)
chain: B1 chain with H3L
On to B6, for which the Kd came to 0.00606 nM, the koff stood at 8.74e-05 s⁻¹ and the kon was 1.44e+07 M⁻¹ s⁻¹.

B7: Hu-vWF[764-1270]-8His S764P-S766N (other)
chain: B1 chain with H3N
B7: the Kd is 0.0104 nM, the koff turned out to be 9.14e-05 s⁻¹ and the kon turned out to be 8.82e+06 M⁻¹ s⁻¹.

B8: Hu-vWF[764-1270]-8His S766Y-K773S (other)
chain: B1 chain with P1S, H3Y, K10S
As to B8, the dissociation constant (Kd) came to 0.0785 nM, the koff came to 0.00138 s⁻¹ and the kon is 1.75e+07 M⁻¹ s⁻¹.

B9: Hu-vWF[764-1270]-8His S764P-S766M (other)
chain: B1 chain with H3M
For B9, the Kd was 0.00488 nM, the koff was 5.76e-05 s⁻¹ and the kon worked out at 1.18e+07 M⁻¹ s⁻¹.

B10: Hu-vWF[764-1270]-8His S766Y-K773E (other)
chain: B1 chain with P1S, H3Y, K10E
Regarding B10, the Kd is 0.261 nM, the koff turned out to be 0.00481 s⁻¹ and the kon is 1.84e+07 M⁻¹ s⁻¹.

B11: Hu-vWF[764-1270]-8His S764P-S766Q (other)
chain: B1 chain with H3Q
As to B11, the Kd is 0.0102 nM, the koff stood at 0.000123 s⁻¹ and the kon is 1.2e+07 M⁻¹ s⁻¹.

B12: Hu-vWF[764-1270]-8His S766Y-K773N (other)
chain: B1 chain with P1S, H3Y, K10N
For B12, the Kd is 0.0984 nM, the koff amounted to 0.00507 s⁻¹ and the kon worked out at 5.15e+07 M⁻¹ s⁻¹.

B13: Hu-vWF[764-1270]-8His S764P-S766K (other)
chain: B1 chain with H3K
In the case of B13, the Kd amounted to 0.014 nM, the koff is 0.000301 s⁻¹ and the kon was found to be 2.15e+07 M⁻¹ s⁻¹.

B14: Hu-vWF[764-1270]-8His S766Y-K773M (other)
chain: B1 chain with P1S, H3Y, K10M
As to B14, the dissociation constant (Kd) worked out at 0.0335 nM, the koff came to 0.000659 s⁻¹ and the on-rate (kon) worked out at 1.97e+07 M⁻¹ s⁻¹.

B15: Hu-vWF[764-1270]-8His S766Y-K773G (other)
chain: B1 chain with P1S, H3Y, K10G
As for B15, the Kd was found to be 0.0327 nM, the koff was determined as 0.00197 s⁻¹ and the kon was 6.02e+07 M⁻¹ s⁻¹.

B16: Hu-vWF[764-1270]-8His S766Y-K773H (other)
chain: B1 chain with P1S, H3Y, K10H
For the molecule B16, the dissociation constant (Kd) turned out to be 0.114 nM, the koff stood at 0.0062 s⁻¹ and the kon turned out to be 5.47e+07 M⁻¹ s⁻¹.

B17: Hu-vWF[764-1270]-8His S764P-S766I (other)
chain: B1 chain with H3I
B17: the Kd was 0.00523 nM, the “fold decrease in off-rate against wild type vWF” value turned out to be 22 fold, the “fold increase in affinity against wild type vWF” value is 30 fold and the off-rate constant (koff) amounted to 5.14e-05 s⁻¹. Further, the kon amounted to 9.84e+06 M⁻¹ s⁻¹.

B18: Hu-vWF[764-1270]-8His S766Y-K773A (other)
chain: B1 chain with P1S, H3Y, K10A
For the molecule B18, the Kd was determined as 0.0651 nM, the koff came out at 0.00122 s⁻¹ and the kon amounted to 1.88e+07 M⁻¹ s⁻¹.

B19: Hu-vWF[764-1270]-8His S766Y-K773Q (other)
chain: B1 chain with P1S, H3Y, K10Q
Consider B19, for which the Kd is 0.0393 nM, the koff worked out at 0.000939 s⁻¹ and the kon came to 2.39e+07 M⁻¹ s⁻¹.

B20: Hu-vWF[764-1270]-8His S766Y-K773D (other)
chain: B1 chain with P1S, H3Y, K10D
B20: the Kd amounted to 0.343 nM, the koff was 0.0427 s⁻¹ and the kon was 1.25e+08 M⁻¹ s⁻¹.

B21: Hu-vWF[764-1270]-8His S766Y-K773F (other)
chain: B1 chain with P1S, H3Y, K10F
As for B21, the Kd worked out at 0.158 nM, the koff came out at 0.00324 s⁻¹ and the kon was 2.05e+07 M⁻¹ s⁻¹.

B22: Hu-vWF[764-1270]-8His S764P-S766R (other)
chain: B1 chain with H3R
On to B22, for which the Kd stood at 0.00921 nM, the koff came out at 0.000119 s⁻¹ and the kon turned out to be 1.29e+07 M⁻¹ s⁻¹.

B23: Hu-vWF[764-1270]-8His S764P-S766W (other)
chain: B1 chain with H3W
Regarding B23, the Kd is 0.00727 nM, the koff was determined as 8e-05 s⁻¹ and the kon turned out to be 1.1e+07 M⁻¹ s⁻¹.

B24: Hu-vWF[764-1270]-8His S766Y-K773I (other)
chain: B1 chain with P1S, H3Y, K10I
Take B24: the Kd was determined as 0.071 nM, the koff is 0.000569 s⁻¹ and the kon was found to be 8.02e+06 M⁻¹ s⁻¹.

B25: Hu-vWF[764-1270]-8His S766Y-K773L (other)
chain: B1 chain with P1S, H3Y, K10L
As for B25, the Kd is 0.0192 nM, the koff is 0.000345 s⁻¹ and the kon was determined as 1.79e+07 M⁻¹ s⁻¹.

B26: Hu-vWF[764-1270]-8His S764P-S766V (other)
chain: B1 chain with H3V
Take B26: the Kd stood at 0.0956 nM, the koff turned out to be 7.82e-05 s⁻¹ and the kon worked out at 819000 M⁻¹ s⁻¹.

B27: Hu-vWF[764-1270]-8His S764P-S766P (other)
chain: B1 chain with H3P
Take B27: the Kd was 0.0848 nM, the koff was determined as 0.00217 s⁻¹ and the kon worked out at 2.56e+07 M⁻¹ s⁻¹.
